Source: patent US20030130166A1, “Polynucleotide encoding a human junctional adhesion protein (JAM2)” (priority 1999, published 2003)
Bridges are numbered along the chain shown (N, C = ends). Where no end group is shown, it is not given here.

T1: human JAM3 (Junctional Adhesion Molecule 3), endogenous on HSB T cells (human, UniProt Q9BX67 32-310)
T1 construct: whole, on cells; also called cell surface JAM3; 43 kDa protein
T1 sequence (looked up): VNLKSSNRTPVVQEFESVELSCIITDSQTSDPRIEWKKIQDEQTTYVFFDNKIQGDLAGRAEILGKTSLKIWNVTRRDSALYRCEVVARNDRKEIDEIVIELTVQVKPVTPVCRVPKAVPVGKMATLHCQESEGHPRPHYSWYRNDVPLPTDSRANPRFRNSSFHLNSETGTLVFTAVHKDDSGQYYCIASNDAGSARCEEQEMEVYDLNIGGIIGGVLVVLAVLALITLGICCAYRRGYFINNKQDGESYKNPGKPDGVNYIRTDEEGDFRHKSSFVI

B1: human JAM1-Fc (Fc fusion, UniProt Q9Y624 28-238, looked up)
chain: SVTVHSSEPEVRIPENNPVKLSCAYSGFSSPRVEWKFDQGDTTRLVCYNNKITASYEDRVTFLPTGITFKSVTREDTGTYTCMVSEEGGNSYGEVKVKLIVLVPPSKPTVNIPSSATIGNRAVLTCSEQDGSPPSEYTWFKDGIVMPTNPKSTRAFSNSSYVLNPTTGELVFDPLSASDTGEYSCEARNGYGTPMTSNAVRMEAVERNVGV
notes: not shown: Fc part not described for this construct
B2: human JAM1-Fc: Fc fusion of JAM1, the human homologue of mouse JAM (protein)
chain: B1 chain
modifications: left off: a dimerising Fc or GST
notes: Fc fusion of JAM1, the human homologue of mouse JAM
B3: N-terminal Ig-fold of JAM2: first Ig domain of JAM2 synthesized as a secreted protein in insect cells (protein)
chain: FSAPKDQQVVTAVEYQEAILACKTPKKTVSSRLEWKKLGRSVSFVYYQQTLQGDFKNRAEMIDFNIRIKNVTRSDAGKYRCEVSAPSEQGQNLEEDTVTLEV
modifications: left off: a dimerising Fc or GST
notes: first Ig domain of JAM2 synthesized as a secreted protein in insect cells
B4: soluble JAM3 (JAM3 ectodomain from a JAM3-Fc fusion digested with thrombin and purified to remove the Fc) (receptor, human, UniProt Q9BX67 32-241, looked up)
chain: VNLKSSNRTPVVQEFESVELSCIITDSQTSDPRIEWKKIQDEQTTYVFFDNKIQGDLAGRAEILGKTSLKIWNVTRRDSALYRCEVVARNDRKEIDEIVIELTVQVKPVTPVCRVPKAVPVGKMATLHCQESEGHPRPHYSWYRNDVPLPTDSRANPRFRNSSFHLNSETGTLVFTAVHKDDSGQYYCIASNDAGSARCEEQEMEVYDLN
notes: extracellular domain; It was added at a 10-fold molar ratio; also called soluble JAM3 ectodomain
B5: TBC 772, cyclic hexapeptide (C*WLDVC*), antagonist of alpha 4 integrins (peptide)
peptide: CWLDVC
modifications: bridge 1-6; also: cyclic hexapeptide, bond type between C* residues not given here
B6: JAM2-Fc (extracellular domain of human JAM2 fused to the constant region of mouse IgG-2a, secreted from Sf21 insect cells) (Fc fusion)
chain: FSAPKDQQVVTAVEYQEAILACKTPKKTVSSRLEWKKLGRSVSFVYYQQTLQGDFKNRAEMIDFNIRIKNVTRSDAGKYRCEVSAPSEQGQNLEEDTVTLEVLVAPAVPSCEVPSSALSGTVVELRCQDKEGNPAPEYTWFKDGIRLLENPRLGSQSTNSSYTMNTKTGTLQFNTVSKLDTGEYSCEARNSVGYRRCPGKRMQVDDLNIS
notes: In the assays it was captured on 96 well plates by goat anti-mouse IgG2a; also called recombinant JAM2; JAM2 extracellular domain; not shown: constant region of mouse IgG-2a (mIgG2a) from the modified pFastBac1 vector
B7: JAM2-Fc: extracellular domain of human JAM2 secreted from Sf21 insect cells as a fusion to mIgG2a (protein)
chain: B6 chain
modifications: left off: a dimerising Fc or GST
notes: extracellular domain of human JAM2 secreted from Sf21 insect cells as a fusion to mIgG2a

What was measured:
[1] = biological target: T1, human JAM3 (Junctional Adhesion …); experiment: adhesion of calcein-loaded HSB cells to Fc fusion protein
HSB cells = experiment: In vitro adhesion assay, calcein loaded cells on captured Fc fusion protein; type: cell-based
Description: (§1) Biol. 52:85 (1992), herein incorporated by reference.
(§2) The capacity of JAM2 extracellular domain to adhere to various leukocyte cell lines according to a previously established in vitro binding assay performed under static conditions was next examined (see Todderud, G., J. Leukoc, Biol. 52:85(1992)). Calcein loaded cells were allowed to interact with JAM2-Fc captured in 96 well plates in binding buffer (hereinafter “BB”) which contained TBS plus 1 mM calcium, magnesium and manganese. Non-specific binding of cells to captured mIgG2a was determined simultaneously and subtracted. […] Binding to the erythroleukemic K562 cell lines was non-existent.

[2] = biological target: B6; experiment: the inventors' reading of the inhibition of HSB adhesion to captured JAM2-Fc by soluble JAM3 (FIG. 13A)
Description: (§3) JAM2-Fc adhesion to T cell lines was performed by capture of fusion protein by goat anti-mouse coated 96 well plates as described in Cunningham et al., J. Biol. Chem., 275:34750-34756 (2000). The HSB cells were loaded with calcien-AM (Molecular Probes Inc., Eugene Oreg.) and re-suspended in Tris Buffered Saline (TBS) with or without the addition of 1 mM MnCl₂. Binding to mouse IgG2a was used to subtract background. Soluble JAM3 was generated from a JAM3-Fc fusion that was digested with thrombin and purified to remove the Fc component. Neutralizing anti-JAM3 polyclonal serum was generated in mice using human JAM3 extracellular domain as immunogen. […] Following adhesion for 90 minutes at 37° C., wells were washed 3 times at room temperature. Adhered cells were lyzed and fluorescence quantified in a Cytofluor with excitation at 485/20 nm and emission at 530/25.
The inventors believe that soluble JAM3 ectodomain would bind to the JAM2 on the well surface and prevent its interaction with JAM3 on the HSB cell surface. It is concluded that under these conditions, that JAM2 is unable to engage α4 integrin. Therefore, a specific interaction of JAM2 with cell-surface bound JAM3 is necessary before JAM2 can bind α4 integrin. Likewise, if neutralizing anti-JAM3 antibodies are used to prevent JAM2 binding to cell surface JAM3, then JAM2 is also unable to engage integrin (FIG. 13B).

[3] = biological target: T2, α4β1 integrin, endogenous on HSB T cells (UniProt P13612 34-1032; P05556 21-798, limits assumed); experiment: inhibition of Mn-enhanced adhesion of calcein-loaded HSB cells to captured JAM2-Fc (FIG. 12B)
T2 construct: whole, on cells; also called α4 integrin; alpha 4 integrin
Description: as §3

[4] = biological target: T1, human JAM3 (Junctional Adhesion …); experiment: adhesion of calcein-loaded HSB cells to captured JAM2-Fc in TBS+Ca/Mg/Mn (FIG. 7)
Description: In vitro adhesion assays were performed in 96 well plates essentially as described in Todderud, G., J. J. Leukoc. Biol. 52:85 (1992), herein incorporated by reference. Briefly, 50 μl of goat anti-mouse IgG2a was coated at 5 μg/ml in PBS and used to capture 4.8 pmoles of JAM2-Fc or mIgG2a (control). Various leukocyte cell lines i.e. T lymphocytes, HSB, HPB-ALL; B lymphocytes, RAMOS; monocytic cells, HL60, THP-1, and the erythroleukemic, K562 lines were labeled with calcein (Molecular Probes Inc., Eugene, Oreg.) at 50 μg/ml for 25 minutes at 37° C. with 250,000 cells/well in binding buffer that consisted of Tris buffered saline plus 1 mM each of CaCl₂, MgCl₂ and MnCl₂. Wells were washed 3×, lysed with 50 mM Tris (pH 7.5), 5 mM EDTA, 1% NP40, and fluorescence read in a Cytofluor with excitation at 485/20 nm and emission at 530/25 nm. Specific binding was calculated as fluorescence with JAM2-Fc minus fluorescence with mIgG2a. For antibody inhibition, protein captured on wells or HSB cells were incubated for 30 min at RT in binding buffer with 1:100×dilution of preimmune (normal mouse serum) or anti-JAM2 mouse polyclonal serum. […] Overall differences among experimental groups for each parameter were first assessed by one-way analysis of variance (ANOVA) and individual pairwise group comparisons were analyzed by Fisher's protected least significance difference (PLSD) post hoc test. […]

K562 cell lines = experiment: In vitro adhesion assay, calcein loaded cells on captured Fc fusion protein; type: cell-based; details: binding buffer: TBS plus 1 mM calcium, magnesium and manganese; FIG. 7
Description: as §1, §2

HPB-ALL = experiment: as above; type: cell-based; details: binding buffer: TBS plus 1 mM calcium, magnesium and manganese; FIG. 7
Description: as §1, §2

T2 sequence (P13612 34-1032 limits assumed, chain 1 of 2): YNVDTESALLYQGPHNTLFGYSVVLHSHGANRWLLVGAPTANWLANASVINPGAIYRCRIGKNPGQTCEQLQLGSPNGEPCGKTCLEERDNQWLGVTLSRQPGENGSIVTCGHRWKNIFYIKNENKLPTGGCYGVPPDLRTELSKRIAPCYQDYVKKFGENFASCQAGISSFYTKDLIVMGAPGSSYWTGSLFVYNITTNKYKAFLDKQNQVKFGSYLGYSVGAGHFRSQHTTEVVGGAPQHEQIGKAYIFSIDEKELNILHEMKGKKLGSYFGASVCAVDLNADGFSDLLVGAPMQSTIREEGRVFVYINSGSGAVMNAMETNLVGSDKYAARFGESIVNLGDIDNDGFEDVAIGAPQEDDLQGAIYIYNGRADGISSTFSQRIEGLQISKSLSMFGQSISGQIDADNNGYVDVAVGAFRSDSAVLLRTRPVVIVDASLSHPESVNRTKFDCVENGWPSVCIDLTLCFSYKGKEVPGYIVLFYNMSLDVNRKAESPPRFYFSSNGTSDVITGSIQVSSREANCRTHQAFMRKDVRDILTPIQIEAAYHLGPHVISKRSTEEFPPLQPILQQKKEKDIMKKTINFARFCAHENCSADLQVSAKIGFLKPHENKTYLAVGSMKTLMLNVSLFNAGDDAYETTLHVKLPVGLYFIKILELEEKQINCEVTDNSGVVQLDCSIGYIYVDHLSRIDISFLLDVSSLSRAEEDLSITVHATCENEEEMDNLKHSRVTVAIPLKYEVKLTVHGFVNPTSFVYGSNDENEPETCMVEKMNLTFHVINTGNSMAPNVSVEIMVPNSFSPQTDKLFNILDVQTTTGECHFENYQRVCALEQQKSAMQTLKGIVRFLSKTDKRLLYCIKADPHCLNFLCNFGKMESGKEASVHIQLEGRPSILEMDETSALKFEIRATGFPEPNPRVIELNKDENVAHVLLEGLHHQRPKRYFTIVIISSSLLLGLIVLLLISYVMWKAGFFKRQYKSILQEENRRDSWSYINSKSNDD
T2 sequence (P05556 21-798 limits assumed, chain 2 of 2): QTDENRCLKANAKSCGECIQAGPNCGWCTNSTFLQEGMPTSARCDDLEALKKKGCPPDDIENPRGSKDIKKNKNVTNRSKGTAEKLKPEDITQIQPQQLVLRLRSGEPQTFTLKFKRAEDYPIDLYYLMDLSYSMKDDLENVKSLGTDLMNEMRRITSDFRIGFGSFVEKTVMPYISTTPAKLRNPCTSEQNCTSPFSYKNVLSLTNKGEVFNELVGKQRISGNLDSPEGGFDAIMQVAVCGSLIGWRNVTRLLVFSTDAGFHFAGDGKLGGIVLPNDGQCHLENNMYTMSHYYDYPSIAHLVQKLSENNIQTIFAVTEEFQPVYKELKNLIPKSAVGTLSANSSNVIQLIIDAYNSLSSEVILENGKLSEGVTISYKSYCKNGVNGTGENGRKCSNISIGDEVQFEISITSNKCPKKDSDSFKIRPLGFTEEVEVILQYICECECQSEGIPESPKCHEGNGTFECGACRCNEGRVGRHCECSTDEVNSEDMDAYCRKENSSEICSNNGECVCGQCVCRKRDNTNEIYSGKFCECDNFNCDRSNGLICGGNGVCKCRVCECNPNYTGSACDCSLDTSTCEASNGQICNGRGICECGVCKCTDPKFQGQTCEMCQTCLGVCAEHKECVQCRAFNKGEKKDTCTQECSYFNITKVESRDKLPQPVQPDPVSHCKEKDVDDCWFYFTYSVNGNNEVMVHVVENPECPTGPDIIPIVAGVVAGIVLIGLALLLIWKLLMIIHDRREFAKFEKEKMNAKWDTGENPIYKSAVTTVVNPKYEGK

Molecule: B1
- binding result [1]: no binding

Molecule: B2
- binding of calcein loaded HSB cells (HSB cells): unable to bind

Molecule: B3
- adhesion to HSB cells (HSB cells; TBS and TBS+Mn, FIG. 10): capable of adhering to HSB cells

Molecule: B4
- binding result [2]: binds

Molecule: B5
- IC50 [3]: ~60 nM

Molecule: B6
- binding result [4]: binds

Molecule: B7
- binding to K562 cells (K562 cell lines): non-existent
- capture of HSB cells (HSB cells; binding buffer: TBS plus 1 mM calcium, magnesium and manganese, FIG. 7): quite efficiently
- capture of HPB-ALL cells (HPB-ALL): quite efficiently
